Experimental data published in patent US20080267961A1 (published 2008).
Values belong to the molecule of their own block, whether it stands above or below them.

Legend:
ErbB2 = ErbB2 (UniProt P04626); assay: inhibition of 125I-HRGβ177-244 (0.1 nM) binding to T47D cells; 2C4 varied
HRGα EGF domain177-241 = HRGα EGF domain177-241 (UniProt Q02297); assay: cell-based or functional assay
[1] = target: T1, HRGβ 1 EGF domain 176-246 (UniProt Q02297-6 176-246, 125I-labelled in the crosslinking experiment (residue not stated)); assay: cell-based or functional assay
T1 sequence (looked up): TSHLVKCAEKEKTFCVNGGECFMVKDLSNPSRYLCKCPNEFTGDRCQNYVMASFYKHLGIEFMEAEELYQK

HRGβ177-244 [2] = target: HRGβ177-244 (UniProt Q02297); assay: 125I-HRGβ177-244 binding to ErbB3-IgG homodimer (positive control), 96-well plate, Scatchard analysis
[3] = target: HRGα EGF domain177-241, Q02297; assay: cell-based or functional assay
HRGβ177-244 [4] = target: HRGβ177-244 (UniProt Q02297); assay: inhibition of 125I-HRGβ177-244 (0.1 nM) binding to T47D cells; p85-sErbB3 varied
HRGβ177-244 [5] = target: HRGβ177-244 (UniProt Q02297); assay: 125I-HRGβ177-244 binding to immobilized p85-sErbB3, 96-well plate, Scatchard analysis

Molecule: ErbB3-IgG fusion protein (from UniProt P21860 20-643) (Fc fusion)
Kd (HRGβ177-244 [2]): 4.7 nM

B1: p85-sErbB3, P21860 20-538 (receptor)
chain: SEVGNSQAVCPGTLNGLSVTGDAENQYQTLYKLYERCEVVMGNLEIVLTGHNADLSFLQWIREVTGYVLVAMNEFSTLPLPNLRVVRGTQVYDGKFAIFVMLNYNTNSSHALRQLRLTQLTEILSGGVYIEKNDKLCHMDTIDWRDIVRDRDAEIVVKDNGRSCPPCHEVCKGRCWGPGSEDCQTLTKTICAPQCNGHCFGPNPNQCCHDECAGGCSGPQDTDCFACRHFNDSGACVPRCPQPLVYNKLTFQLEPNPHTKYQYGGVCVASCPHNFVVDQTSCVRACPPDKMEVDKNGLKMCEPCGGLCPKACEGTGSGSRFQTVDSSNIDGFVNCTKILGNLDFLITGLNGDPWHKIPALDPEKLNVFRTVREITGYLNIQSWPPHMHNFSVFSNLTTIGGRSLYNRGFSLLIMKNLNVTSLGFRSLKEISAGRIYISANRQLCYHHSLNWTKVLRGPTEERLDIKHNRPRRDCVAEGKVCDPLCSSGGCWGPGPGQCLSCRNYSRGGVCVTHCNFLNGYSKGSQSRMGGGGALQWNCSGGIQ
modifications: here or on the partner: Secreted glycoprotein (bound to Con A); glycans not carried by the letters.
decrease of HRGα-stimulated ErbB3 activation in Ba/F3 (ErbB2+ErbB3) cells, 2 µg/ml HRGα, conditioned medium [3]: 30%
inhibition of HRGα-stimulated ErbB3 activation (tyrosine phosphorylation, densitometry) in Ba/F3 (ErbB2+ErbB3) cells, 1 µg/ml HRGα, conditioned medium [3]: 80%

B2: p85-sErbB3 (receptor)
chain: B1 chain
modifications: Secreted glycoprotein (bound to Con A); glycans not carried by the letters.
IC50 (HRGβ177-244 [4]): 0.45 nM
Kd (HRGβ177-244 [5]): 3 nM
inhibition of HRGβ-stimulated MCF7 cell growth, 0.4 nM HRGβ, 40 nM p85-sErbB3 (100-fold molar excess), 5,000 cells/well [1]: 75%
inhibition of HRGβ-stimulated MCF7 cell growth, 0.4 nM HRGβ, 40 nM p85-sErbB3 (100-fold molar excess), 8,000 cells/well [1]: 90%

The next lines start with the values.

IC50 (ErbB2): 0.55 nM
Molecule: 2C4, a monoclonal antibody specific for the ErbB2 extracellular domain

inhibition of HRGα-stimulated ErbB3 activation (tyrosine phosphorylation, densitometry) in Ba/F3 (ErbB2+ErbB3) cells, 1 µg/ml HRGα, conditioned medium (HRGα EGF domain177-241): 40%
decrease of ligand-stimulated ErbB3 tyrosine phosphorylation in Ba/F3 (ErbB2+ErbB3) cells, 50 and 100 ng/ml HRGβ, conditioned medium [1]: 60%
Molecule: p45-sErbB3 (from UniProt P21860 20-329) (receptor)
